Measurements as given in the RNAGym collection of RNA variant scans (doi:10.1093/molbev/msab373).

B1: Azoarcus group I ribozyme (parent)
chain: GUGCCUUGCGCCGGGAAACCACGCAAGGGAUGGUGUCAAAUUCGGCGAAACCUAAGCGCCCGCCCGGGCGUAUGGCAACGCCGAGCCAAGCUUCGGCGCCUGCGCCGAUGAAGGUGUAGAGACUAGACGGCACCCACCUAAGGCAAACGCUAUGGUGAAGGCAUAGUCCAGGGAGUGGCGAAAGUCACACAAACCGG

Variants of: B1
Assay: reverse-splicing fitness (ratio to wild type); higher = more active; in vitro selection; Mg2+ level not given
In short: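 An in vitro group I ribozyme library with randomized positions was T7-transcribed and gel-purified. In triplicate, 10 pmol RNA in EPPS pH 7.5 was reacted with 50 pmoles of a 30-nt RNA substrate for 1 h at 37 °C across several added MgCl2 levels (1–48 mM), then stopped with EDTA. Products were reverse transcribed from a substrate-complementary primer, PCR-amplified and sequenced (HiSeq 4000). Fitness is a variant's read proportion after selection over that before, normalised to wild type.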

Row | Variant | reverse-splicing fitness
1 | C82U A111U A145G C150G C169G U176C | 0.0116
2 | C82U A111U A145G C150G C169G U176G | 0.00579
3 | C82U A111U A145G C150G C169G U176A | 0.00984
4 | C82U A111U A120U A145U C169U U176C | 0.00278
5 | C82U A111U A120U A145U C169U U176G | 0.00177
6 | C82U A111U A120U A145U C169U U176A | 0.00286
7 | C82U A111U A120U U176G | 0.00321
8 | C82U A111U A120U U176C | 0.0117
9 | C82U A111U A120U U176A | 0.00769
10 | C82U A111U A120U A145G C169U | 0.00389
11 | C82U A111U A120U A145G C169A | 0.0029
12 | C82U A111U A120U A145G C169G | 0.00363
13 | C82U A111U A120U C150A C169U U176C | 0.00379
14 | C82U A111U A120U C150A C169U U176A | 0.0059
15 | C82U A111U A120U C150A C169U U176G | 0.00301
16 | C82U A111U A120U A145G C169A U176G | 0.00171
17 | C82U A111U A120U A145G C169A U176A | 0.00289
18 | C82U A111U A120U A145G C169A U176C | 0.00291
19 | C82U A111U A145C C150U C169A U176C | 0.00663
20 | C82U A111U A145C C150U C169A U176A | 0.0108
21 | C82U A111U A145C C150U C169A U176G | 0.00651

Row | Variant | reverse-splicing fitness
22 | C82U A111U A120U A145G C150G | 0.00817
23 | C82U A111U A120U A145G C150A | 0.00852
24 | C82U A111U A120U A145G C150U | 0.022
25 | C82U A111U A120U A145G C150G C169A U176A | 0.0098
26 | C82U A111U A120U A145G C150G C169A U176C | 0.00711
27 | C82U A111U A120U A145G C150G C169A U176G | 0.00474
28 | C82U A111U A120U A145C C169U U176C | 0.0022
29 | C82U A111U A120U A145C C169U U176G | 0.00177
30 | C82U A111U A120U A145C C169U U176A | 0.00247
31 | C82U A111U A120U C150U C169G U176G | 0.00205
32 | C82U A111U A120U C150U C169G U176A | 0.00732
33 | C82U A111U A120U C150U C169G U176C | 0.00317
34 | C82U A111U A145G C150A C169A U176A | 0.0186
35 | C82U A111U A145G C150A C169A U176C | 0.0216
36 | C82U A111U A145G C150A C169A U176G | 0.00768
37 | C82U A111U A120U A145G C150U C169G | 0.0051
38 | C82U A111U A120U A145G C150U C169U | 0.00435
39 | C82U A111U A120U A145G C150U C169A | 0.00562
40 | C82U A111U A120U A145C C169G U176G | 0.0016
41 | C82U A111U A120U A145G C150G U176A | 0.00562
42 | C82U A111U A120U A145G C150G U176C | 0.00721

Row | Variant | reverse-splicing fitness
43 | C82U A111U A120U A145G C150G U176G | 0.00324
44 | C82U A111U A120U A145U C150G C169U U176G | 0.0024
45 | C82U A111U A120U A145U C150G C169U U176C | 0.00272
46 | C82U A111U A120U A145U C150G C169U U176A | 0.00242
47 | C82U A111U A120U A145U C150U U176C | 0.00855
48 | C82U A111U A120U A145U C150U U176A | 0.00665
49 | C82U A111U A120U A145U C150U U176G | 0.00324
50 | C82U A111U A145C C150G C169A U176G | 0.006
51 | C82U A111U A145C C150G C169A U176A | 0.00853
52 | C82U A111U A145C C150G C169A U176C | 0.0066
53 | C82U A111U A120U C150A C169G | 0.0044
54 | C82U A111U A120U C150A C169A | 0.00469
55 | C82U A111U A120U C150A C169U | 0.00428
56 | C82U A111U A120U C150G C169G U176G | 0.00254
57 | C82U A111U A120U C150G C169G U176C | 0.00263
58 | C82U A111U A120U C150G C169G U176A | 0.00411
59 | C82U A111U A145G C169A U176A | 0.0191
60 | C82U A111U A145G C169A U176C | 0.0257
61 | C82U A111U A145G C169A U176G | 0.00582
62 | C82U A111U A145C C150U C169U | 0.0089
63 | C82U A111U A145C C150U C169G | 0.00801

Row | Variant | reverse-splicing fitness
64 | C82U A111U A145C C150U C169A | 0.00776
65 | C82U A111U A145C C150U C169G U176C | 0.0104
66 | C82U A111U A145C C150U C169G U176G | 0.00575
67 | C82U A111U A145C C150U C169G U176A | 0.0199
68 | C82U A111U A120U A145U C150U C169G U176A | 0.00276
69 | C82U A111U A120U A145U C150U C169G U176C | 0.00317
70 | C82U A111U A120U A145U C150U C169G U176G | 0.00202
71 | C82U A111U A145G C150U C169A | 0.0102
72 | C82U A111U A145G C150U C169G | 0.00883
73 | C82U A111U A145G C150U C169U | 0.0113
74 | C82U A111U A120U A145C C169U | 0.00314
75 | C82U A111U A145G C150U C169G U176C | 0.0174
76 | C82U A111U A145G C150U C169G U176G | 0.00598
77 | C82U A111U A145G C150U C169G U176A | 0.0133
78 | C82U A111U A120U A145G C150G C169U U176A | 0.00611
79 | C82U A111U A120U A145G C150G C169U U176G | 0.00345
80 | C82U A111U A120U A145G C150G C169U U176C | 0.0058
81 | C82U A111U A120U A145U C150A C169A | 0.00215
82 | C82U A111U A120U A145U C150A C169U | 0.00279
83 | C82U A111U A120U A145U C150A C169G | 0.00254
